# Measurements as given in the supplement of paper PMC10567573.
# B1: EMD (parent)
# chain: YQSKGYNDDYYEESYFTTRTYGEP
# Variants of: B1
# Experiment: protein stability index of a GFP-peptide fusion (GPS, HEK-293T) (PSI 1-6); higher = more stable
# Details: c terminus: a fixed tail appended
# 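Note: lentivirally expressed fusions sorted by FACS into six bins by GFP to DsRed ratio, PSI derived from sequencing read proportions per bin multiplied by bin number.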
row,Variant,protein stability index
1,YQSKGYNDDYYEESYFTTRTYAEP,2.1
2,YQSKGYNDDYYEESYFTTRTYCEP,1.92
3,YQSKGYNDDYYEESYFTTRTYDEP,2.23
4,YQSKGYNDDYYEESYFTTHTYGEP,2.5
5,YQSKGYNDDYYEESYFTTYTYGEP,2.52
6,YQSKGYNDDYYEESYFTTETYGEP,3.12
7,YQSKGYNDDYYEESYFTTCTYGEP,2.08
8,YQSKGYNDDYYEESYFTTFTYGEP,2.11
9,YQSKGYNDDYYEESYFTTGTYGEP,3.07
10,YQSKGYNDDYYEESYFTTNTYGEP,2.87
11,YQSKGYNDDYYEESYFTTQTYGEP,2.88
12,YQSKGYNDDYYEESYFTTITYGEP,2.09
13,YQSKGYNDDYYEESYFTTVTYGEP,2.26
14,YQSKGYNDDYYEESYFTTLTYGEP,2.21
15,YQSKGYNDDYYEESYFTTSTYGEP,2.53
16,YQSKGYNDDYYEESYFTTPTYGEP,2.53
17,YQSKGYNDDYYEESYFTTDTYGEP,3.08
18,YQSKGYNDDYYEESYFTTKTYGEP,2.46
19,YQSKGYNDDYYEESYFTTTTYGEP,2.81
20,YQSKGYNDDYYEESYFTTWTYGEP,2.03
21,YQSKGYNDDYYEESYFTTMTYGEP,2.35
22,YQSKGYNDDYYEESYFTTATYGEP,2.29
23,YQSKGYNDDYYKESYFTTRTYGEP,2.33
24,YQSKGYNDDYYIESYFTTRTYGEP,2.38

row,Variant,protein stability index
1,YQSKGYNDDYYNESYFTTRTYGEP,1.95
2,YQSKGYNDDYYMESYFTTRTYGEP,2.26
3,YQSKGYNDDYYSESYFTTRTYGEP,2.33
4,YQSKGYNDDYYTESYFTTRTYGEP,2.2
5,YQSKGYNDDYYLESYFTTRTYGEP,2.14
6,YQSKGYNDDYYHESYFTTRTYGEP,1.52
7,YQSKGYNDDYYVESYFTTRTYGEP,1.71
8,YQSKGYNDDYYQESYFTTRTYGEP,1.86
9,YQSKGYNDDYYWESYFTTRTYGEP,2.19
10,YQSKGYNDDYYYESYFTTRTYGEP,1.79
11,YQSKGYNDDYYPESYFTTRTYGEP,2.12
12,YQSKGYNDDYYRESYFTTRTYGEP,1.73
13,YQSKGYNDDYYEESYITTRTYGEP,2.95
14,YQSKGYNDDYYEESYHTTRTYGEP,3.08
15,YQSKGYNDDYYEESYDTTRTYGEP,3.47
16,YQSKGYNDDYYEESYKTTRTYGEP,3.15
17,YQSKGYNDDYYEESYTTTRTYGEP,3.14
18,YQSKGYNDDYYEESYPTTRTYGEP,3.19
19,YQSKGYNDDYYEESYSTTRTYGEP,2.88
20,YQSKGYNDDYYEESYQTTRTYGEP,3.1
21,YQSKGYNDDYYEESYCTTRTYGEP,3.12
22,YQSKGYNDDYYEESYGTTRTYGEP,3.26
23,YQSKGYNDDYYEESYATTRTYGEP,3.2
24,YQSKGYNDDYYEESYYTTRTYGEP,2.28

row,Variant,protein stability index
1,YQSKGYNDDYYEESYNTTRTYGEP,3.59
2,YQSKGYNDDYYEESYMTTRTYGEP,2.91
3,YQSKGYNDDYYEESYVTTRTYGEP,2.85
4,YQSKGYNDDYYEESYETTRTYGEP,3.64
5,YQSKGYNDDYYEESYRTTRTYGEP,2.69
6,YQSKGYNDDYYEESYLTTRTYGEP,3.38
7,YQSKGYNDDYYEESYWTTRTYGEP,1.45
8,YQSKGYNDDYYEEWYFTTRTYGEP,2.29
9,YQSKGYNDDYYEEAYFTTRTYGEP,1.88
10,YQSKGYNDDYYEEIYFTTRTYGEP,1.76
11,YQSKGYNDDYYEEVYFTTRTYGEP,2.19
12,YQSKGYNDDYYEEGYFTTRTYGEP,2.37
13,YQSKGYNDDYYEEFYFTTRTYGEP,1.78
14,YQSKGYNDDYYEEHYFTTRTYGEP,2.13
15,YQSKGYNDDYYEEEYFTTRTYGEP,2.83
16,YQSKGYNDDYYEEDYFTTRTYGEP,2.44
17,YQSKGYNDDYYEEQYFTTRTYGEP,2.34
18,YQSKGYNDDYYEELYFTTRTYGEP,2.08
19,YQSKGYNDDYYEEPYFTTRTYGEP,2.62
20,YQSKGYNDDYYEETYFTTRTYGEP,2.38
21,YQSKGYNDDYYEERYFTTRTYGEP,1.9
22,YQSKGYNDDYYEECYFTTRTYGEP,1.77
23,YQSKGYNDDYYEEMYFTTRTYGEP,2.26
24,YQSKGYNDDYYEEYYFTTRTYGEP,2.28

row,Variant,protein stability index
1,YQSKGYNDDYYEENYFTTRTYGEP,2.35
2,YQSKGYNDDYYEEKYFTTRTYGEP,2.16
3,YQSKGYNDDYYEESYFNTRTYGEP,2.35
4,YQSKGYNDDYYEESYFQTRTYGEP,2.31
5,YQSKGYNDDYYEESYFHTRTYGEP,2.07
6,YQSKGYNDDYYEESYFVTRTYGEP,2.13
7,YQSKGYNDDYYEESYFYTRTYGEP,2.23
8,YQSKGYNDDYYEESYFFTRTYGEP,1.85
9,YQSKGYNDDYYEESYFDTRTYGEP,3.19
10,YQSKGYNDDYYEESYFATRTYGEP,2.36
11,YQSKGYNDDYYEESYFPTRTYGEP,2.4
12,YQSKGYNDDYYEESYFITRTYGEP,2.1
13,YQSKGYNDDYYEESYFMTRTYGEP,1.71
14,YQSKGYNDDYYEESYFGTRTYGEP,2.82
15,YQSKGYNDDYYEESYFKTRTYGEP,2.56
16,YQSKGYNDDYYEESYFRTRTYGEP,2.44
17,YQSKGYNDDYYEESYFWTRTYGEP,2.15
18,YQSKGYNDDYYEESYFCTRTYGEP,1.96
19,YQSKGYNDDYYEESYFETRTYGEP,3.02
20,YQSKGYNDDYYEESYFLTRTYGEP,2.42
21,YQSKGYNDDYYEESYFSTRTYGEP,2.48
22,YQSKGYNDDYYEESKFTTRTYGEP,2.63
